Series [1] relates to A549 tumor-bearing nude mice. As to the kind of experiment: In vivo fluorescence activation in tumor. The arrangement: species or system Balb/c nude mice. The note with it: 6 h post-injection; intratumoral, 20 nmol in 20 μL water with 7.5% DMSO and 0.5% Tween 80; excitation 680 nm, emission ≥700 nm; n = 4. The protocol: The in vivo activation of 1 in terms of fluorescence emission was further investigated using A549 tumor-bearing nude mice as the animal model and the non-cleavable analogue 14 as the negative control. […] The fluorescence intensity per unit area of the tumor was also determined at different time points for both conjugates (Figure 7b). […] At 6 h post-injection, the intensity of 1 was 4.3-fold higher than that of 14, showing that the former could be activated through enzymatic cleavage of the two peptide segments by the intrinsic MMP-2 and cathepsin B in the tumor, while the latter remained largely quenched due to its non-cleavable nature. […]
taken by a microplate reader (Tecan Spark 10M) at ambient temperature. The average […]
of the other wells. The cell viability was then determined by the equation: […]
where Ai is the absorbance of the ith datum (i = 1, 2, …, n), Acontrol is the average absorbance of the control wells in which the compound was absent, and n (= 4) is the number of data points.
Female Balb/c nude mice (20–25 g) were obtained from the Laboratory Animal Services Centre at The Chinese University of Hong Kong. […] In vivo fluorescence imaging was performed before and after […]
A549 tumor-bearing nude mice were prepared as described above. The length and width of the tumor were measured using a micrometer digital caliper (SCITOP Systems). […]

Series [2] has as its system HeLa human cervical carcinoma cells. As to the kind of experiment: Intracellular fluorescence by flow cytometry. Format: cell-based. The note with it: 2 μM 1 h + 6 h, SB-3CT (10 μM) and CA-074 Me (25 μM) 2 h pretreatment. The protocol: The cells were pretreated with SB-3CT (10 μM) and/or CA-074 Me (25 μM) or simply the neat medium for 2 h, followed by incubation with 1 (2 μM) for a further 1 h. After being rinsed with PBS, the cells were incubated in the medium for a further 6 h. As a negative control, the cells were simply incubated with 14 (2 μM) for 1 h, followed by post-incubation in the medium for 6 h. The fluorescence images of the cells under all these conditions were captured using a confocal laser scanning microscope. […] For the cells with pretreatment with both inhibitors, fluorescence due to 1 could hardly be seen. Similarly, for the cells being incubated with 14, the intracellular fluorescence was negligible. […] Again, for PMB 1, the fluorescence intensity was the highest for the cells without being pretreated with the two inhibitors. […] For HeLa cells being treated with 1, the fluorescence intensity of the native cells (i.e., the dual activated condition) was just 3.2-fold that of the cells under the dual inhibited condition. […]
Confocal Fluorescence Microscopic Studies […]
The cells were then rinsed with PBS twice before being examined with a Leica TCS SP8 high - speed confocal microscope equipped with a 638 nm laser. The fluorescence was monitored at 650−750 nm. The images were digitized and analyzed using a Leica Application Suite X […]

The test system of another series is skin of nude mice. As to the kind of experiment: In vivo photodynamic effect on skin. The conditions noted are these: intravenous 20 nmol.
Setting [3] is: with laser irradiation (680 nm, 0.3 W cm-2, 10 min), 24 h after.

Protocol for skin of nude mice: The mice were first intravenously injected with either 1 or 6 (20 nmol) in 200 μL of distilled water containing 3% DMSO and 0.5% Tween 80 (v/v). The whole-body fluorescence images of the mice were monitored using an infrared imaging system over a period of 24 h.
At 6 h post-injection of 1 or 6, the mice were irradiated with the aforementioned laser source (680 nm, 0.3 W cm^–2) on a region of the skin (marked in Figure 8d) for 10 min, which were the conditions used for in vivo PDT as described above. The appearance of the irradiated region was then examined after 24 h. […] The skin tissues of these mice were then harvested and examined using the TUNEL assay.
Further evidence was obtained by the H&E staining of these skin tissues.
Female Balb/c nude mice (20–25 g) were injected with a solution of 1 or 6 (20 nmol) in 200
μL of distilled water containing 3% DMSO and 0.5% Tween 80 (v/v) through the tail vein.
vivo fluorescence imaging was performed before and after the injection at different time points
up to 24 h with an Odyssey infrared imaging system (excitation wavelength = 680 nm, emission
wavelength ≥ 700 nm). The images were digitized and analyzed using an Odyssey imaging
Three mice were used for each comp ound. To study the
photodynamic effect of these two compounds on the skin of the mice, a region of the skin was
illuminated with a diode laser (Biolitec Ceralas) at 680 nm operated at 0.24 W at 6 h post -
injection of these compounds. Illumination on a circu lar spot with a diameter of 1.0 cm (fluence
rate = 0.3 W cm-2) for 10 min led to a total fluence of 180 J cm–2. After 24 h, the mice were
sacrificed, and then the skin tissues were harvested. They were fixed with 4%
paraformaldehyde, dehydrated in an alcohol series, mixed with solutions of xylene and paraffin,
and then embedded in paraffin. The tissue sections were prepared by a Leica RM2235
microtome. After the H&E staining, the tissues were examined with a Nikon Eclipse Ni-E
upright fluorescence microscope. For the TUNEL staining assay, the skin tissues were dewaxed
and rehydrated in an alcohol series and then incubated with a Proteinase K solution (20 μg mL-
1) at room temperature for 30 min. After being rinsed with PBS three times, the tissue slides
were stained with 50 μL of Nucleotide Mix (a mixture of terminal deoxynucleotidyl transferase
and cyanine 3-labeled deoxyuridine triphosphate) of the one -step TUNEL assay kit (Beyotime,
Shanghai, China), and then the nuclei were stained with Hochest 33342 (10 μM) for 1 h at
room temperature. After being rinsed with PBS for three times, the tissue slides were examined
with a Zeiss LSM 880 NLO laser scanning microscope equipped with two solid-state 405 and
561 nm lasers. Hoechst 33342 was excited at 405 nm and its fluorescence was monitored at
410−500 nm, while the TUNEL staining cyanine 3 dye was excited at 561 nm and its
fluorescence was monitored at 570−620 nm.

As for `CCN(CC)c1ccc2nc3ccc(/N=N/c4ccc(N(C)CCCNC(=O)OC[C@@H]5[C@@H]6CCc7nnn(CC(=O)NCCCC[C@@H]8NC(=O)CNC(=O)[C@H](CCCCN)NC(=O)[C@H](CCCNC(=N)N)NC(=O)[C@H](C(C)C)NC(=O)CNC(=O)[C@H](CC(C)C)NC(=O)[C@@H]9CCCN9C(=O)[C@H](CCCCN)NC(=O)[C@@H](N)CSCc9cc(COc%10ccc(C%11=C%12C(C)=C(I)C(/C=C/c%13ccc(OCCOCCOCCOC)cc%13)=[N+]%12[B-](F)(F)n%12c(/C=C/c%13ccc(OCCOCCOCCOC)cc%13)c(I)c(C)c%12%11)cc%10)cc(c9)CSC[C@@H](C(N)=O)NC(=O)[C@H](CCCCN)NC(=O)[C@H](CCCCN)NC(=O)CNC(=O)[C@H](CC(C)C)NC(=O)[C@H](Cc9ccccc9)NC(=O)CNC(=O)[C@H](CCCCN)NC(=O)CNC8=O)c7CC[C@@H]65)cc4)cc3[n+](-c3ccccc3)c2c1` [compound 1], the “tumoral fluorescence intensity relative to that of 14” value in series [1] was 4.3 fold. Further, in series [2], the “intracellular fluorescence intensity, native cells relative to dual inhibited condition” value is recorded as 3.2 fold. In the series with skin of nude mice (laser 680 nm, 0.3 W cm-2, 10 min at 6 h post-injection), the “appearance of irradiated skin region after 24 h” value is recorded as “no noticeable change”. In addition, in the series on skin of nude mice (setting [3]), the “H&E staining of skin tissue” value is “virtually intact” and the “TUNEL assay of skin tissue” value is “negligible”. Besides, in the series with skin of nude mice (without laser irradiation), the “H&E staining of skin tissue” value is “virtually intact” and the “TUNEL assay of skin tissue (fluorescence intensity)” value was “negligible”.

(Values after PMC10080691, “Enzyme-Responsive Double-Locked Photodynamic Molecular Beacon for Targeted Photodynamic Anticancer Therapy” (Journal of the American Chemical Society, 2023).)
